Assay: yeast display, Sf9 membrane polyspecificity reagent, FACS + sequencing; frameworks hold sequencing errors
Procedure, shortened: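 Nanobodies from a synthetic yeast display library (Saccharomyces cerevisiae BJ5465), induced 36–48 hours with galactose, were stained 1 hour at 4 °C with 10% biotinylated, detergent-solubilized Sf9 membrane reagent, enriched on streptavidin microbeads, then FACS-sorted. Anti-HA (expression) and streptavidin (reagent binding) fluorescence set low and high (top ~1%) gates. Polyreactivity labels come from the gate of origin. Genes were colony-PCR amplified, MiSeq 2 × 250 sequenced and filtered by CDR length.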

| Sequence | polyreactivity (PSR sort gate) |
| --- | --- |
| QVQLEEKRRGLVQAGGSLRLSCASSGRTFVTNAMGRYRQAPGKERELVAAISSSGGSTYYADSVKGRFTISRDNAMNTVYLQMNSLKPEDTAVYYCAVAGQTKGQYDYWGQGTQVTVSS | low polyreactivity |
| QVQLVESGGGLVQAGVSLRLSCAASGIIFRGNAMGWYRQAPGKERELVASICRRGGSTYYADSVKGRFTISRDNAKNTVYLQMNSLKPEDTAVYYCNAYGSTYVYGPYDYWGQGTQVTVSS | high polyreactivity |
| QVQLVESGGGLVQAGGTLRLSCAASGYTFPLYAMGWYRQAPVKERELVADINIGGASTYYADSVKGRFTISRDNATNTVYLQMNSLKPEDTAVYDCAKEYYDGYFPTFDYDYFGQGTQVTVSS | low polyreactivity |
| QVQLVESGGCLVQAGGSLRLSCAASGFIFRWYAMGWYRQAPGKERELVAAISLGGSTNYADSVKGRFTISRDNAKNTVYLQMNSLKPEDTAVYYCNARYVSYSGRYVIGQYVKYDYWGKGTQVTVSS | high polyreactivity |
| QVQLVESGGGIVQAGGSLRLSCAASGLTIPPNAMGWYRQAPGKEREFVAAITWSGGSTYYADSVKGRFTISRDNAKNTVYLQMNRLKPEDSAVYYCNRVTAYYPTKFDYWGQGTQVTVSS | high polyreactivity |
| QVQLVESGGGLVQAGGSLRLSCAASGSTFSSLIMGCYRQAPGKERELVAAISRSGGRTYYADSVKGRFTISRDNAKNTVYLQMNSLKPEDTAVYYCAADYVSVDRIRYGYWGQGTQVTVSS | high polyreactivity |
| QVQLVESGRGLVQAGGSLRLSCAASGSTFDANAMGWYRQAPGKERELVAAISRSGGNTYYADSVKGRFTISRDNAKNTVYLQMNSLKPEDTAVYYCAADFRNAYYDRLDYWGQGTHVTVSS | low polyreactivity |
| QFKLVESGGGLVQAGGSLRLSCAASGSTFKWNAMGWYRQAPGKERELVAAITSGGSTTYADSVKGRFTISRDNAKNTVYLQMNSLKPEDTAVYYCAAAYRRHYYGVYRFDYWGQGTQVTVSS | high polyreactivity |
| QVQLVESGGGLVQAGGSLRLSCAASGRIFRYYAMGWYRQAPGKERELVAAINSGGSTKYADSVKGRFTISRDNAKNTVYLQMNSLKPEDTAVYYCAAVYTPDSRYDYWGQGTQVTVSS | high polyreactivity |
| QVQLVESGGGLVQAGGILRLSCAASGRTFLYYAMGWYRQAPGKERELVAGITSGGSTNYADSVKGRFTISRDTAKNTDYLQMNSLKPEDTAVYYCAVDQGYYRTADVNYDYWGQGTQVTVSS | low polyreactivity |
| QVQLVESGGGLVQAGGSLRLSCAASGNAIGWYRQAPGKERELVASINRSGGRTYYADSVKGRFTISRDNAKNTVYLQMNSLKPEDTAVYYCAARTHYDSDYWGQGTQVTVSS | low polyreactivity |
| QVQLVESGGGLVQAGGSLRLSCAASGRIFFWYAMGWYRQAPGTERELVAGITSGGSTNYADSVKGRFTISRDNAKNTVYLQMNSLKPEDTAVYYCAKRSYRTHTYDYWGQGTQVTVSS | low polyreactivity |
| QVQLQESGGGLVQAGGSLRLSCAASGYISHADEMGWYRQAPGKEHELVASISNGGSTNYADSVKGRFTISRDNAKNTVFLQMNSLKSEDTAVYYCAAWTGQVDIHYYWGQGTQVTVSS | low polyreactivity |
| QVQLVESGRGLVQAGGSLRLSCAASGRIFDRNAMGWYRDAPGKERELVAAIDDSVGDTSYADSVKGRFTISRDNAKNTVYLQMNSLKPEDTSVFYCNAGYADFVTYPRYYYWGQGTQVTVSS | low polyreactivity |
| QVQLVESGGGLVQAGGSLRLSCAASGRILYYYVMGWYRPAPGKEREFVAAISSSASNTYYADSVKGRITISRDNAKNTVEFQMNSLKPEDTAVYYCAADTLWLDWQGYDYWGQGTQVTVSS | low polyreactivity |
| QVQLVESGGGLVQAGGSLRLSSASSGFTFNKYAMGRYRQAPGKERELVAAISSSGGSTRYADSVKGRFTISRDNAKNTVYLQMNSLNPEDTAVFYCAVYVTRDSGWLLYDYWGQGTQVTVSS | high polyreactivity |
| QVQLVESGGGLVQAGGSLRLSCAASGFISGVNTMGWYSQAPGKERELVAAISSGGRTHYADSVKGRFTISRDNAKNTVYLQMNSLKPEDTAVYYCATRVRSTTRYYYWGLGTQVTVSS | high polyreactivity |
| QVQLVESGGGLVQAGGSLRLSCAASGRIFGPYAMGWYRQAPGKERELVASISYSGGSTYYADSVKGRFTISRDNAKNTVYLQMNSLKPEDTAVYYCARRAVYSKRRYDYWGQGTQVTVSS | low polyreactivity |
| QVHLEESGGGLVQAGGSLRLSWAASGATFSNYTMGWDRQAPGNERELVAAISRTGGSTYYADSVNGRFTISRDNAKNHVYLQISSLEPEDNAVYYCAAICYVGRYYYWGQGNQVTVSS | high polyreactivity |
| QVQLVESGGRLVQSGGSLRLICAASGQIFQWYAMGWYRQAPGKETELVAAISSGDSTYYADSVTGRFTISRDNAKNTVYLDMNSLKPEDTAVDYCNARAIGWRIYDYWGQGTEVTVSS | high polyreactivity |
| QVQLVESGGGLVQSGGSLLLSCAASGFTFGRYAMAWYRQAPGKERELVAAIRRSGGSTYYADSVKGRFTISRDNAKNTVYLQMNSRKPEDTAVFYCAAVRWWTYGNYDYWGQGTQVTVSS | high polyreactivity |
| QVQLVESRGGLVQAGGSLRLSCAASGFIFTRNAMGWYRQAHGKVRELVAAISYSGGSTYYADSVKGRFTISRDNAKNTVYLQMNSLKPEDTAVYYCNVSPTTSGDGGGYDSWGQGTLVTVSS | low polyreactivity |

| Sequence | polyreactivity (PSR sort gate) |
| --- | --- |
| QVQLVESGGGLVKAGGSLRISCAASGRIFGYNAMGWYRQAPGKERELVAVISTSGTITYYADSVKGRFTISRDNAKNTVYLQMNSLKPEDTAVYYCAARYYQRANGFGYWGQGTQVTVSS | low polyreactivity |
| QVQLVESGGGLVQAGGSLRLSCAASGFIFRLNAMGWYRQAPGKERELVAAISTYADSMKGRFTISRDNAKNTVYLQMNSLKPEDTAVYYCAKDYTDTYAYRTGFDYWGQGTQVTVSS | low polyreactivity |
| QVQLVESGGGLVQAGRSLRLSCAASGYIIYPNAMGWYRQAPGKERELVAAITSGGSTTYADSVKGRFTISRDNAKNTVYVQMNCLKPEDSAVYYCAARFVLWSRTYYSWGQGTQVTVSS | high polyreactivity |
| QVQLVESGGGLVQAGGSLRLSCAASASIFAYKAIGWYRQAPGKESELVASITNGGSTYYADSVKGRFTISRDNAKNTVYLQMNSLKQEDTAVYYCNTDFDVYSVGYDGYWGQGTQVTVSS | low polyreactivity |
| QVQLVESGGVLVQAGGSLRLSCAASGSTFNSYVMGWYRQAPGKEREFVAAISWSGVRTYYADSVKGRFTISRDNAKNTVYLQMNSLKPEDTAVYYCAVRSGRRNYVRPAFGYWGQGTQVTVSS | high polyreactivity |
| QVQLVESGGGLVQAGGSLRLSCAASGSTFATYAMGWYRQAPGKERELVAVISRSGGSTYYADSVKGRFTISRDNAKNTVYLQMNSLKPEDTAVYYCNVPITPGRVKYDYWGQGTQVTVSS | high polyreactivity |
| QVQLVESGGGLVQAGGSLRLSCAASGRIFHVYAMGWYRQAPGKERELVAAISSGDRTYYADSVKGRFIISRDNAKNTVYLQMNSLKPEDTAVYYCAATAQYYHYHLAKYDYWGQGTQVTVSS | low polyreactivity |
| QVQLVESGGRLVQAGGSLRLICAASGFTFWYYAIGWYRQAPGKESEFVASISWNGGRTYYADSVKGRFTISRDNAKNTVYLQMNSLKPEDTAVYYCATRVIYSFTDFKGDYWGQGTQVTVSS | high polyreactivity |
| QVQLVESGGGLVQAGGSLRLSCAASGSTFDGYAMGWSRQAPGKERELVAAITFDGSSTYYADSVKGRFTISRDNAKNTVYLQMNSLKPEDTAVYYCAAASSYWVLWDDYWGQGTQVTVSS | low polyreactivity |
| QVQLVESGGGLVQAGGSLRLSCAASGIIQPRYAMGWYRQAPGKERELVAAISRGGGTYYADSVKGRFTISRDNAKNTVYLQMNSLIPEYSAVYNCASAYVFVGSSHYYWGQGTQVTVSS | high polyreactivity |
| QVQLVESGGGLVQAGGSLRLSCAASGSTFAGYAMGWYRQAPGKERELVAAISRRGGSTYYADSVKGRFTISRDYAKNTVYLQMNRLKPEDTAVYYCNRDKYLRDPDYDYWGQGSQVTVSS | low polyreactivity |
| QVQLVDSGGGLVQAGGSHRLSCAASGRIFGDNAMGWYRQAPGKERELVAAIDWNDGNTYYADSVKGRFTISRDNANNTVYLQMNSLKPEDTAVYYCNTAGQDAEYDYWGQGTQVTVSS | low polyreactivity |
| QDQLVESGGGLVQAGGSLRLSCAASGSIFGRNTMGWYRQAPGKERELVAAISSSGGSTRYADSVKGRFTISRDNAKNTVYLQMNSLKPEDTAVYYCNAKRYGGRQASYNLGDYWGQGTEVTVSS | high polyreactivity |
| QVQLVESGGGLVQAGGSLRLSCAASGITFGYYAMGWYRQAPGKERELVASISWSGDSTYYADSVKGRFTISRDNAKNTVYLQMNSLKPEDTAVYYCNRGSSWEYGAEYNYWGQGTQVTVSS | low polyreactivity |
| QVQLVESGGCLVQAGGSLRLSCAASGSTFRWNSIGSYRQAPVKEREFVASITSGGSTNYADSVKGRYTISRDIAKNTVYLQMNSLKPYDTAVYYCNADVRRSSYYVWLYDYWGQGTQVTVSS | low polyreactivity |
| QVQLVESGGGLVQAGGSLRLSCAASGRIFYSYAMAWYRQAPGKERELVAAISSRTGSTYYADSVKGRFTISRDNAKITVYLQMNSLIPEDTAVYYCAARKKYRFDYWGQGTQVTVSS | high polyreactivity |
| QVQLVESGGGLVQAGGSLRLSCAASGLTFWLYAMGWYRPAPGKERELVAAITRSGGSTSYADSVKGRFTISRDNAKNTVYLQMNSLKPEDTAVYYCNADSPGYTAVRLVEFDYWGQGTQVTVSS | low polyreactivity |
| QVQLVESGGGLVQAGGRLRLSSAASGSTFPYNAMGWYRQAPGKERELVADITSGSSTYYADSGKGRFTISRDNAKNTVYLQMNSLKPEDTAVYYCAATYFVWLNAGGRGYWGQGTQVTVSS | low polyreactivity |
| QVQLVESGGGLVQAGGSLRLSCAASGNIFSFYAMGWNRPAPGKERELVAAINWSGGDTYYADSVKGRFTISRDNAKNTVYLQMNSLKPEDTAVYYCAAEYYYQYYPGGYDYWGQGTQVTVSS | high polyreactivity |
| QVQLVQSGGGLVQAGGSLRLSCAASGSTFTPNDMGWYRQAPGKERELVAAIDWSGGSTYYADSVKGRFTISRDNAKNTVYLQMNSLKPEDTAVYYYNADSSKFYSHGEYEYWGQGTQVTVSS | low polyreactivity |
| QVQLVESGGGLVQAGGSLRLSCAASGFTFVYYAMVWYRQAPGKERELVAAISRSGGSTYYADSVKGRFTISRDNAKNTVYLQMNSLKPEDTAVYYCAADIVARYPYDYAMYYWGQGTQVTVSS | high polyreactivity |

From the nanobody polyreactivity screen of Harvey et al. (2022)
